{"source": "patent US7037497", "key": {"[1]": {"target": "HIV-1JR-FL envelope glycoprotein gp120/gp41 on HeLa-EnvJR-FL+ cells (HIV-1 JR-FL)", "test": "cell-based or functional assay"}, "[2]": {"target": "CCR5 chemokine receptor on the cell surface (UniProt P51681)", "sequence (P51681 whole entry)": "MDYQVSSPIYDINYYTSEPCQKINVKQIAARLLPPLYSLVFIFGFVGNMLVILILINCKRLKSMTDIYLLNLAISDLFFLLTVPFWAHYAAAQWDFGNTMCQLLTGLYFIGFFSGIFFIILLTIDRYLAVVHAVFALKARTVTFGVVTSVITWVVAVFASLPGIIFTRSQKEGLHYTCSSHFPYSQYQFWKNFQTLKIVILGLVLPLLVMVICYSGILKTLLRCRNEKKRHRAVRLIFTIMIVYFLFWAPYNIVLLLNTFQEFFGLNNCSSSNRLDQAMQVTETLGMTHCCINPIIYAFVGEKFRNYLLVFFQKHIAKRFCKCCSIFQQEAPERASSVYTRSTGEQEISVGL", "test": "flow cytometry on PHA/IL-2-stimulated PBMC"}, "[3]": {"target": "CCR5 chemokine receptor on the cell surface (UniProt P51681)", "test": "cell-based or functional assay"}, "[4]": {"target": "CCR5 chemokine receptor on the cell surface (UniProt P51681)"}, "[5]": {"target": "CCR5 chemokine receptor on the cell surface (UniProt P51681)", "test": "flow cytometry on L1.2-CCR5+ cells, PE anti-mouse IgG"}}}
{"substance": "CD4-IgG2 (from UniProt P01730 26-204; P01730 26-204) (Fc fusion)", "values": [{"measurement": "K (= IC50) of the median effect fit, inhibition of env-mediated membrane fusion (RET assay)", "setting": "[1]", "value": 0.31, "unit": "µg/mL"}]}
{"substance": "T-20 peptide", "values": [{"measurement": "K (= IC50) of the median effect fit, inhibition of env-mediated membrane fusion (RET assay)", "setting": "[1]", "value": 0.017, "unit": "µg/mL"}]}
{"substance": "anti-CCR5 mAb 2D7 (antibody)", "values": [{"measurement": "% of cells stained", "setting": "[2]", "value": "> 20 % of PBMC"}, {"measurement": "IC50, inhibition of JR-FL entry (luciferase reporter virus, U87MG-CD4+CCR5+ cells)", "setting": "[3]", "value": 0.026, "unit": "µg/mL"}, {"measurement": "IC50, inhibition of cell-cell fusion (RET assay, PM1 and HeLa-EnvJR-FL+ cells)", "setting": "[3]", "value": 1.6, "unit": "µg/mL"}, {"measurement": "K (= IC50) of the median effect fit, inhibition of cell-cell fusion (RET assay)", "setting": "[3]", "value": 0.36, "unit": "µg/mL"}, {"measurement": "IC50", "setting": "[4]", "value": 1.38, "unit": "µg/mL"}, {"measurement": "% of cells stained (% of L1.2-CCR5+ cells)", "setting": "[5]", "value": "> 90"}]}
{"substance": "anti-CCR5 monoclonal antibody PA14 (ATCC No. HB-12610)", "values": [{"measurement": "% of cells stained", "setting": "[2]", "value": "> 20 % of PBMC"}, {"measurement": "fold difference of m.f.i. against PA9", "setting": "[2]", "value": 7, "unit": "fold"}, {"measurement": "IC50, inhibition of JR-FL entry (luciferase reporter virus, U87MG-CD4+CCR5+ cells)", "setting": "[3]", "value": 0.024, "unit": "µg/mL"}, {"measurement": "IC50, inhibition of RANTES-induced calcium influx in L1.2-CCR5+ cells", "setting": "[3]", "value": 50, "unit": "µg/mL"}, {"measurement": "IC50, inhibition of cell-cell fusion (RET assay, PM1 and HeLa-EnvJR-FL+ cells)", "setting": "[3]", "value": 1.7, "unit": "µg/mL"}, {"measurement": "IC50 of calcium influx inhibition, PA14 against 2D7", "setting": "[3]", "value": 8, "unit": "fold"}, {"measurement": "IC50", "setting": "[4]", "value": 1.58, "unit": "µg/mL"}, {"measurement": "% of cells stained (% of L1.2-CCR5+ cells)", "setting": "[5]", "value": "> 90"}]}
